According to article doi:10.1101/2024.12.19.629503:

Biological target: di-nucleosome of X. laevis histone octamers on two Widom 601 sequences (unmodified) (X. laevis)
Experiment: cryo-EM structure

stoichiometry N (hetero-tetramers per di-nucleosome): 2
Substance: DNMT3A2/3B3 hetero-tetramer (from UniProt Q9UBC3-3 1-770) (complex)
